Columns and labels:
[1] = target: Photobacterium profundum α-carbonic anhydrase (Photobacterium profundum SS9); assay: non-reducing SDS-PAGE with protonography; purified PprCA in Laemmli loading buffer without 2-mercaptoethanol, 12% SDS gel, stained with Coomassie blue or by in-gel CO2 hydratase activity (bromothymol blue)
[2] = target: Photobacterium profundum α-carbonic anhydrase (Photobacterium profundum SS9); assay: SEC; Hiprep 16/60 Sephacryl S-200 equilibrated with 20 mM Tris pH 7.5 and 150 mM NaCl; dimer to monomers

A stoichiometry N [1] of 2 and a stoichiometry N [2] of 2 were found for “Photobacterium profundum α-carbonic anhydrase (enzyme)” in this work.

From paper PMC5148590
